{
  "source": "patent US20020143164A1",
  "about": "“Ras activator nucleic acid molecules, polypeptides and methods of use” (priority 1999, published 2002)",
  "molecules": {"B1": {"name": "ACDC25: Mutant GRF4 with deletion of the CDC25 domain (residue 711-1007) (protein)", "chain": "MKPLAIPANHGVMGQQEKHSLPADFTKLHLTDSLHPQVTHVSSSHSGCSITSDSGSSSLSDIYQATESEAGDMDLSGLPETAVDSEDDDDEEDIERASDPLMSRDIVRDCLEKDPIDRTDDDIEQLLEFMHQLPAFANMTMSVRRELCAVMVFAVVERAGTIVLNDGEELDSWSVILNGSVEVTYPDGKAEILCMGNSFGVSPTMDKEYMKGVMRTKVDDCQFVCIAQQDYCRILNQVEKNMQKVEEEGEIVMVKEHRELDRTGTRKGHIVIKGTSERLTMHLVEEHSVVDPTFIEDFLLTYRTFLSSPMEVGKKLLEWFNDPSLRDKVTRVVLLWVNNHFNDFEGDPAMTRFLEEFENNLEREKMGGHLRLLNIACAAKAKRRLMTLTKPSREAPLPFILLGGSEKGFGIFVDSVDSGSKATEAGLKRGDQILEVNGQNFENIQLSKAMEILRNNTHLSITVKTNLFVFKELLTRLSEEKRNGAPHLPKIGDIKKASRYSIPDLAVDVEQVIGLEKVNKKSKANTVGGRNKLKKILDKTRISILPQKPYNDIGIGQSQDDSIVGLRQTKHIPTALPVSGTLSSSNPDLLQSHHRILDFSATPDLPDQVLRVFKADQQSRYIMISKDTTAKEVVIQAIREFAVTATPDQYSLCEVSVTPEGVIKQRRLPDQLSKLADRIQLSGRYYLKNNMETETLCSDEDAQELLRESQPKNPGDKKPVKSETSPVAPRAGSQQKAQSLPQPQQQPPPAHKINQGLQVPAVSLYPSRKKVPVKDLPPFGINSPQALKKILSLSEEGSLERHKKQAEDTISNASSQLSSPPTSPQSSPRKGYTLAPSGTVDNFSDSGHSEISSRSSIVSNSSFDSVPVSLHDERRQRHSVSIVETNLGMGRMERRTMIEPDQYSLGSYAPMSEGRGLYATATVISSPSTEELSQDQGDRASLDAADSGRGSWTSCSSGSHDNIQTIQHQRSWETLPFGHTHFDYSGDPAGLWASSSHMDQIMFSDHSTKYNRQNQSRESLEQAQSRASWASSTGYWGEDSEGDTGTIKRRGGKDVSIEAESSSLTSVTTEETKPVPMPAHIAVASSTTKGLIARKEGRYREPPPTPPGYIGIPITDFPEGHSHPARKPPDYNVALQRSRMVARSSDTAGPSSVQQPHGHPTSSRPVNKPQWHKPNESDPRLAPYQSQGFSTEEDEDEQVSAV"}, "B2": {"name": "GRF2: Flag-tagged full-length RasGRF2, positive control GEF for Ras (protein, UniProt O14827 1-1237, looked up)", "chain": "MQKSVRYNEGHALYLAFLARKEGTKRGFLSKKTAEASRWHEKWFALYQNVLFYFEGEQSCRPAGMYLLEGCSCERTPAPPRAGAGQGGVRDALDKQYYFTVLFGHEGQKPLELRCEEEQDGKEWMEAIHQASYADILIEREVLMQKYIHLVQIVETEKIAANQLRHQLEDQDTEIERLKSEIIALNKTKERMRPYQSNQEDEDPDIKKIKKVQSFMRGWLCRRKWKTIVQDYICSPHAESMRKRNQIVFTMVEAESEYVHQLYILVNGFLRPLRMAASSKKPPISHDDVSSIFLNSETIMFLHEIFHQGLKARIANWPTLILADLFDILLPMLNIYQEFVRNHQYSLQVLANCKQNRDFDKLLKQYEANPACEGRMLETFLTYPMFQIPRYIITLHELLAHTPHEHVERKSLEFAKSKLEELSRVMHDEVSDTENIRKNLAIERMIVEGCDILLDTSQTFIRQGSLIQVPSVERGKLSKVRLGSLSLKKEGERQCFLFTKHFLICTRSSGGKLHLLKTGGVLSLIDCTLIEEPDASDDDSKGSGQVFGHLDFKIVVEPPDAAAFTVVLLAPSRQEKAAWMSDISQCVDNIRCNGLMTIVFEENSKVTVPHMIKSDARLHKDDTDICFSKTLNSCKVPQIRYASVERLLERLTDLRFLSIDFLNTFLHTYRIFTTAAVVLGKLSDIYKRPFTSIPVRSLELFFATSQNNRGEHLVDGKSPRLCRKFSSPPPLAVSRTSSPVRARKLSLTSPLNSKIGALDLTTSSSPTTTTQSPAASPPPHTGQIPLDLSRGLSSPEQSPGTVEENVDNPRVDLCNKLKRSIQKAVLESAPADRAGVESSPAADTTELSPCRSPSTPRHLRYRQPGGQTADNAHCSVSPASAFAIATAAAGHGSPPGFNNTERTCDKEFIIRRTATNRVLNVLRHWVSKHAQDFELNNELKMNVLNLLEEVLRDPDLLPQERKAAANILRALSQDDQDDIHLKLEDIIQMTDCMKAECFESLSAMELAEQITLLDHVIFRSIPYEEFLGQGWMKLDKNERTPYIMKTSQHFNDMSNLVASQIMNYADVSSRANAIEKWVAVADICRCLHNYNGVLEITSALNRSAIYRLKKTWAKVSKQTKALMDKLQKTVSSEGRFKNLRETLKNCNPPAVPYLGMYLTDLAFIEEGTPNFTEEGLVNFSKMRMISHIIREIRQFQQTSYRIDHQPKVAQYLLDKDLIIDEDTLYELSLKIEPRLPA", "modifications": "full-length Flag tag", "notes": "Flag-tagged full-length RasGRF2, positive control GEF for Ras"}, "B3": {"name": "isolated CDC25 domain of GRF4: Isolated CDC25 catalytic domain of GRF4 (protein)", "chain": "SLLQLSTVEVATQLSMRNFELFRNIEPTEYIDDLFKLRSKTSCANLKRFEEVINQETFWVASEILRETNQLKRMKIIKHFIKIALHCRECKNFNSMFAIISGLNLAPVARLRTTWEKLPNKYEKLFQDLQDLFDPSRNMAKYRNVLNSQNLQPPIIPLFPVIKKDLTFLHEGNDSKVDGLVNFEKLRMIAKEIRHVGRMASVNMDPALMFRTRKKKWRSLGSLSQGSTNATVLDVAQTGGHKKRVRRSSFLNAKKLYEDAQMARKVKQYLSNLELEMDEESLQTLSLQCEPATNT"}},
  "key": {"[1]": {"system": "Ras", "assay": "Ras activation assay in living cells, GRF4 and deletion mutants expressed in HEK-293T cells", "assay_type": "cell-based, human", "details": "HEK-293T cells treated with 8-Br-cAMP", "method": "HEK-293T cells were transfected with vector alone, GRF4 (WT), GRF4 lacking its cNMP-BD (ΔcNMP-BD) or its CDC25 domain (ΔCDC25), and then treated (or not) with 8-Br-cAMP. Cell lysates were then incubated with GST-Raf1-RBD to precipitate active Ras, and immunobloited with anti Ras antibodies as above (upper panel). Lower panels are controls for total endogenous Ras and transfected GRF4 or its mutants.\nFlag, HA or myc tags was added to the N-terminus of full length GRF4 using PCR, and subcloned into the mammalian expression vector pCMV5 (Invitrogen). Mutants GRF4 with deletion of the CDC25 domain (residue 711-1007, GRF4DCDC25 or DCDC25 for short), the cNMP-BD (residue 134-254, DcNMP-BD), the PLPF motif in the PDZ domain (residue 396-399, -PLPF), or bearing mutations in the PDZ-binding motif (SAV to AAA), were generated using PCR. The GST-GRF4-cNMP-BD (residue 101-303) and GST-Carboxy-terminus (residue 1348-1499) were PCR-generated and cloned into pGEX-2T ( Pharmacia). The latter construct was used to generate a fusion protein (GST-GRF4C terminus) which was used to immunize rabbits for the generation of polyclonal anti GRF4 antibodies.\nHEK-293T cells were transfected as above, serum starved overnight and then subjected to various treatments, as described in the text. […] GTP in the lysates was determined using activation specific probes as described. Briefly, to determined the levels of active Ras (Ras-GTP) in cell, sepharose-bound GST fusion protein of the Ras-binding domain (RBD) of Raf-1 (GST-Raf1-RBD; Upstate Biotechnology Inc.) was used to precipitate Ras-GTP from cell lysates, and the amount of Ras-GTP determined by immunoblotting with anti Ras antibodies (Quality Biotech). Similarly, to determine the level of Rap1-GTP in cell lysates, sepharose-bound GST fusion proteins of the Rap1-binding domain of RaIGDS (GST-RaIGDS-RBD) were used to precipitate Rap1-GTP, which was then detected on a Western blot using anti-Rap1 antibodies (Transduction Lab)."}, "[2]": {"system": "Ras", "details": "reference 23; cited from earlier work"}, "[3]": {"system": "Ras", "assay": "In vitro GEF assay (32P-α-GTP binding to Ras)", "assay_type": "biochemical", "method": "Full length (GRF4) or CDC25-deleted (ΔCDC25) GRF4, or GRF2, each Flag-tagged, were immunoprecipitated from transfected Hek-293T cells using anti Flag antibodies. Equal amounts of immunoprecipitates were washed with GEF lysis buffer, equilibrated with GEF assay buffer and incubated with 32P-α-GTP (diluted in cold GTP) plus 100 ng of Ras for 30 min. Bound and unbound radiolabelled GTP were then separated by filtration, and the amount of bound GTP determined by scintillation counting, as detailed in the Method section. Fold Ras activation was compared to the activation of Ras in the absence of GRFs (which was set to 1).\nGRF4 has a RasGRF(GEF) activity/function. To show its GEF activity, we performed in-vitro GEF assays. Briefly, GST-Ras was added alone (tubes 1 and 2) or along with GST-CDC25, or immunoprecipitated full-length of GRF4 (tubes 3 and 4). All tubes contained assay mixture including cold GTP and P32 alpha GTP. The exchange reactions were stopped at the indicated times. The stopped reaction mixtures were passed through nitrocellulose filters which were then washed with stop buffer to separate bound and unbound nucleotides. Filters were dried and then quantified by scintillation counting to determine bound CPM. The labeled nucleotides trapped on the washed filters were assumed to be Ras-associated. The difference in bound CPM over 30 minute period was determined for reactions where GST-Ras was added alone (it is the difference in bound CPM between tubes 1 and 2) and where GST-Ras was added with a GEF (it is the difference in bound CPM between tubes 3 and 4)."}},
  "data": [
    {"molecule": "B1", "values": [
      {"measurement": "8-Br-cAMP-mediated activation of Ras via the construct, compared with wt-GRF4", "setting": "[1]", "value": "almost abolished"}
    ]},
    {"molecule": "B2", "values": [
      {"measurement": "Binding to nucleotide-bound forms of Ras, similar experiments", "setting": "[2]", "value": "bind only to EDTA-treated Ras"},
      {"measurement": "Fold Ras activation in vitro (activation without GRFs set to 1)", "setting": "[3]; immunoprecipitated Flag-tagged protein, 100 ng Ras, 30 min", "value": 4.5, "unit": "fold"}
    ]},
    {"molecule": "B3", "values": [
      {"measurement": "In vitro GEF activity on Ras", "setting": "[3]", "value": "unable to demonstrate significant activation"}
    ]}
  ]
}
